What was measured:
[1] = target: T1, human CD71 extracellular domain (human, UniProt P02786 89-760); test: primary ELISA, signal ratio to HSA
T1 construct: also called hCD71; human CD71-ECD

[2] = target: T2, apical domain of cynomolgus CD71 (cynomolgus, UniProt A0A2K5X958 189-383); test: primary ELISA, signal ratio to HSA
T2 construct: domain: apical domain; also called Cyno apical domain

[3] = target: T1, human CD71 extracellular domain; test: primary ELISA; further: test concentration or dose not given here
[4] = target: T2, apical domain of cynomolgus CD71; test: primary ELISA; further: test concentration or dose not given here
[5] = target: T3, apical domain of human CD71 (human, UniProt P02786 189-383, limits assumed); test: primary ELISA; further: test concentration or dose not given here
T3 construct: domain: apical domain; Screen 4 panned on human apical domains, the ELISA text says only 'apical domain'

[6] = target: T4, human CD71 extracellular domain (human, UniProt P02786 89-760, biotinylated); test: primary ELISA; further: test concentration or dose not given here
T4 construct: also called hCD71; CD71-ECD

[7] = target: T3, apical domain of human CD71; test: primary ELISA, RLU over HSA
[8] = target: T4, human CD71 extracellular domain; test: primary ELISA, RLU over HSA

T1 sequence (P02786 89-760): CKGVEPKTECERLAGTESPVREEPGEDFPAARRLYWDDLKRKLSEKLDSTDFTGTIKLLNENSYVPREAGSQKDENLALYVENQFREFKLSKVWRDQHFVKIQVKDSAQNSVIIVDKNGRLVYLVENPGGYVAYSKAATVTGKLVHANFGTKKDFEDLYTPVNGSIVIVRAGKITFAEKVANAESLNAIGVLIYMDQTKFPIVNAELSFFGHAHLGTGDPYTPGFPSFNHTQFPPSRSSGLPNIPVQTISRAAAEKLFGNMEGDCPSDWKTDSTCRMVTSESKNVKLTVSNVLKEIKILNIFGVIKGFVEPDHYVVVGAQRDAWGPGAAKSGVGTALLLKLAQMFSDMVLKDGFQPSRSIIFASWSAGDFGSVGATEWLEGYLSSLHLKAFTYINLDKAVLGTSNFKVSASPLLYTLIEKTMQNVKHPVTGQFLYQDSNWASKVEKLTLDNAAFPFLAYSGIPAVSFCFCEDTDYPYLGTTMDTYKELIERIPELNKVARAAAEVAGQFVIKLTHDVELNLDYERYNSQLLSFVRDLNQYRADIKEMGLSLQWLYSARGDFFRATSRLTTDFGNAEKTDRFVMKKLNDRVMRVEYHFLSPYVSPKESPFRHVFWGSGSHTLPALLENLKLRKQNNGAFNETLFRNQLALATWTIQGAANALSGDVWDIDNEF
T2 sequence (A0A2K5X958 entry or part of it): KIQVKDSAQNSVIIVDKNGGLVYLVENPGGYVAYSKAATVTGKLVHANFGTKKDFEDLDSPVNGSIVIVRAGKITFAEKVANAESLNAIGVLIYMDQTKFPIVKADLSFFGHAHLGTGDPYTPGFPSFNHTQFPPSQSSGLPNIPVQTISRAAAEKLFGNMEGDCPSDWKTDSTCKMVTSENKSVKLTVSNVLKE
T4 sequence (P02786 89-760): as the sequence (P02786 89-760) above
T3 sequence (P02786 189-383 limits assumed): as the sequence (A0A2K5X958 entry or part of it) above, with G20R, D59Y, S60T, K104N, D106E, Q137R, K176R, N182S, S184N counted along it

Binder | hCD71:HSA [1] | Cyno apical domain:HSA [2] | RLU [3] | RLU [4] | RLU [5] | RLU [6] | Apical domain:HSA [7] | hCD71:HSA [8]
CD71-binding FN3 domain of SEQ ID NO: 119 (designed binder) MSLPAPKNLVVSRVTEDSARLSWTAPDAAFDSFFIGYLEPQPPGEAIELYVPGSERSYDLTGLKPGTEYNVTIQGVKGGFPSDPLVAFFTT | 441 | 394 | 7.04e+06 RLU | 6.29e+06 RLU | – | – | – | –
CD71-binding FN3 domain of SEQ ID NO: 120 (designed binder) MSLPAPKNLVVSRVTEDSARLSWTAPDAAFDSFEIAYQELSLWGEAIVLTVPGSERSYDLTGLKPGTEYWVQIGGVKGGEWSAPLSAIFTT | 443 | 534 | 4.26e+06 RLU | 5.13e+06 RLU | – | – | – | –
CD71-binding FN3 domain of SEQ ID NO: 146 (designed binder) MSLPAPKNLVVSRVTEDSARLSWTAPDAAFDSFDIGYFENTYEGEAIVLTVPGSERSYDLTGLKPGTEYVVWIGGVKGGSYSSPLSAIFTT | 112 | 128 | 4.34e+06 RLU | 4.96e+06 RLU | – | – | – | –
CD71-binding FN3 domain of SEQ ID NO: 149 (designed binder) MSLPAPKNLVVSRVTEDSARLSWTAPDAAFDSFDIGYFELRYYGEAIVLTVPGSERSYDLTGLKPGTEYWVSIGGVKGGTYSAPLSAIFTT | 342 | 455 | 3.77e+06 RLU | 5e+06 RLU | – | – | – | –
CD71-binding FN3 domain of SEQ ID NO: 144 (designed binder) MSLPAPKNLVVSRVTEDSARLSWTAPDAAFDSFEIGYFENLYLGEAIVLTVPGSERSYDLTSLKPGTEYWVQIGGVKGGNWSAPLSATFTT | 134 | 150 | 4.74e+06 RLU | 5.3e+06 RLU | – | – | – | –
CD71-binding FN3 domain of SEQ ID NO: 148 (designed binder) MSLPAPKNLVVSRVTEDSARLSWTAPDAAFDSFEIVYQENSAYGEAIVLTVPGSERSYDLTGLKPGTEYWVQIGGVKGGEWSAPLSAIFTT | 212 | 408 | 2.45e+06 RLU | 4.72e+06 RLU | – | – | – | –
CD71-binding FN3 domain of SEQ ID NO: 130 (designed binder) MSLPAPKNLVVSRVTEDSARLSWTAPDAAFDSFEIAYFERTWFGEAIVLTVPGSERSYDLTGLKPGTEYWVQIGGVKGGDWSAPLSAIFTT | 147 | 196 | 3.76e+06 RLU | 5e+06 RLU | – | – | – | –
CD71-binding FN3 domain of SEQ ID NO: 152 (designed binder) MSLPAPKNLVVSRVTEDSARLSWTAPDAAFDSFDIGYFEATYYGEAIVLTVPGSERSYDLTGLKPGTEYWVQIGGVKGGNWSAPLSAIFTT | 164 | 291 | 2.36e+06 RLU | 4.21e+06 RLU | – | – | – | –
CD71-binding FN3 domain of SEQ ID NO: 131 (designed binder) MSLPAPKNLVVSRVTEDSARLSWTAPDAAFDSFEIAYFENDWAGEAIVLTVPGSERSYDLTGLKPGTEYVVFIGGVKGGDFSPPLSAIFTT | 101 | 145 | 3.35e+06 RLU | 4.81e+06 RLU | – | – | – | –
CD71-binding FN3 domain of SEQ ID NO: 132 (designed binder) MSLPAPKNLVVSRVTEDSARLSWTAPDAAFDSFEIGYFENLYLGEAIVLTVPGSERSYDLTGLKPGTEYWVQIGGVKGVNWSAPLSAIFTT | 142 | 201 | 3.63e+06 RLU | 5.15e+06 RLU | – | – | – | –
CD71-binding FN3 domain of SEQ ID NO: 139 (designed binder) MSLPAPKNLVVSRVTEDSARLSWTAPDAAFDSFEIGYFENLYLGEAIVLTVPGSERSYDLTGLKPGTEYWVQIGGVKGGAYSTPLSAIFTT | 409 | 496 | 3.7e+06 RLU | 4.49e+06 RLU | – | – | – | –
CD71-binding FN3 domain of SEQ ID NO: 126 (designed binder) MSLPAPKNLVVSRVTEDSARLSWTAPDAVFDSFEIAYQELSLWGEAIVLTVPGSERSYDLTGLKPGTEYYVHIGGVKGGIWSSPLSAYFTT | 227 | 382 | 3.13e+06 RLU | 5.27e+06 RLU | – | – | – | –
CD71-binding FN3 domain of SEQ ID NO: 141 (designed binder) MSLPAPKNLVVSRVTEDSARLSWTAPDAAFDSFEIGYFENLYLGEAIVLTVPGSERSYDLTGLKPGTEYWVQIGGVKGGNWSAPLSAYFTT | 192 | 245 | 4.22e+06 RLU | 5.4e+06 RLU | – | – | – | –
CD71-binding FN3 domain of SEQ ID NO: 150 (designed binder) MSLPAPKNLVVSRVTEDSARLSWTAPDAAFDSFDIGYFENSYAGEAIVLTVPGSERSYDLTGLKPGTEYYVSIAGVKGGRFSPPLSAIFTT | 98 | 118 | 3.49e+06 RLU | 4.18e+06 RLU | – | – | – | –
CD71-binding FN3 domain of SEQ ID NO: 124 (designed binder) MSLPAPKNLVVSRVIEDSARLSWTAPDAAFDSFEIGYFENLYLGEAIVLTVPGSERSYDLTGLKPGTEYWVQIGGVKGGNWSAPLSAIFTT | 43 | 42 | 5.01e+06 RLU | 4.89e+06 RLU | – | – | – | –
CD71-binding FN3 domain of SEQ ID NO: 151 (designed binder) MSLPAPKNLVVSRITEDSARLSWTAPDAAFDSFEIAYFETCRTGEAIVLTVPGSERSYDLTGLKPGTEYRVWIGGVKGGVWSRPLSAIVTT | 22 | 28 | 4.04e+06 RLU | 5.1e+06 RLU | – | – | – | –
CD71-binding FN3 domain of SEQ ID NO: 122 (designed binder) MSLPAPKNLVVSRVTEDSARPSWTAPDAAFDSFEIGYFENLYLGEAIVLTVPGSERSYDLTGLKPGTEYYVHIGGVKGGIWSSPLSAYFTT | 105 | 80 | 5.5e+06 RLU | 4.2e+06 RLU | – | – | – | –
CD71-binding FN3 domain of SEQ ID NO: 155 (designed binder) MSLPAPENLVVSRVTEDSARLSWTAPDAAFDSFEIGYFENLYLGEAIVLTVPGSERSYDLTGLKPGTEYWVQIGGVKGGVWSRPLSAIFTT | 151 | 220 | 3.55e+06 RLU | 5.19e+06 RLU | – | – | – | –

Next, values leading:

hCD71:HSA [1] | Cyno apical domain:HSA [2] | RLU [3] | RLU [4] | RLU [5] | RLU [6] | Apical domain:HSA [7] | hCD71:HSA [8] | Binder
153 | 173 | 4.44e+06 RLU | 5.02e+06 RLU | – | – | – | – | CD71-binding FN3 domain of SEQ ID NO: 166 (designed binder) MSLPAPKNLVVSRVTEDSARLSWTAPDAAFDSFEIGYFENLYLGEAIVLTVPGSERSYDLTGLKPGTEYWVQIGGIKGGNWSAPLSAIFTT
69 | 83 | 3.68e+06 RLU | 4.43e+06 RLU | – | – | – | – | CD71-binding FN3 domain of SEQ ID NO: 156 (designed binder) MSLPAPKNLVVSRVTEDSARLSWTAPDAAFDSFEIGYFEMSWTGEAIVLTVPGSERSYDLTGLKPGTEYVVFIGGVKGGNWSAPLSAIFTT
355 | 530 | 2.89e+06 RLU | 4.32e+06 RLU | – | – | – | – | CD71-binding FN3 domain of SEQ ID NO: 157 (designed binder) MSLPAPKNLVVSRVTEDSARLSWTAPDAAFDSFEIGYGEFTYYGEAIVLTVPGSERSYDLTGLKPGTEYWVQIGGVKGGNWSNPLSAIFTT
286 | 195 | 5.55e+06 RLU | 3.78e+06 RLU | – | – | – | – | CD71-binding FN3 domain of SEQ ID NO: 164 (designed binder) MSLPAPKNLVVSRVTEDSARLSWTAPDAAFDSFFIGYLEPQPPGEAIHLYVPGSERSYDLTGLKPGTEYWVQIGGVKGGNWSAPLSAIFTT
289 | 478 | 2.63e+06 RLU | 4.35e+06 RLU | – | – | – | – | CD71-binding FN3 domain of SEQ ID NO: 169 (designed binder) MSLPAPKNLVVSRVTEDSARLSWTAPDAAFDSFEIGYFENLYLGEAIVLTVPGSERSYDLTGLKPGTEYWVQIGGVKGGNWSAPLSATFTT
88 | 100 | 4.38e+06 RLU | 5.02e+06 RLU | – | – | – | – | CD71-binding FN3 domain of SEQ ID NO: 160 (designed binder) MSLPAPKNLVVSRVTEDSARLSWTAPDAAFDSFEIGYFENLYLGEAIVLTVPGSERSYDLTGLKPGTEYWVQIGGVKGGNWSVPLSAIFTT
40 | 72 | 2.64e+06 RLU | 4.77e+06 RLU | – | – | – | – | CD71-binding FN3 domain of SEQ ID NO: 159 (designed binder) MSLPAPKNLVVSRVTEDSARLSWTAPDAAFDSFEIVYQENSAYGEAIVLTVPGSERSYDLTGLKPGTEYWVQIGGVKGGNWSAPLSAISTT
96 | 99 | 4.48e+06 RLU | 4.63e+06 RLU | – | – | – | – | CD71-binding FN3 domain of SEQ ID NO: 158 (designed binder) MSLPAPKNLVVSRVTEDSARLSWTAPDAAFDSFEIAYFERTWFGEAIVLTVPGSERSYDLTGLKPGTEYWVQIGGVKGGDWSKPLSAIFTT
127 | 166 | 3.81e+06 RLU | 5e+06 RLU | – | – | – | – | CD71-binding FN3 domain of SEQ ID NO: 170 (designed binder) MSLPAPKNLVVSRVTEDSARLSWTAPDAAFDSFEIGYFENLYLGEAIVLTVPGSERSYDLTGLKPGTEYWVQIGGVKGGNWSTPLSAIFTT
– | – | – | – | 3.26e+06 RLU | 2.99e+06 RLU | 154 | 141 | CD71-binding FN3 domain of SEQ ID NO: 536 (designed binder) MLPAPKNLVVSRVTEDSARLSWTAPDAAFDSFDIGYTETVSFGEAIVLTVPGSERSYDLTGLKPGTEYIVKILGVKGGFASFPLSAIFTT
